In the supplement of paper PMC7125110:
± gives the standard error. This sample holds only a part of the variants without activity.

B1: glmS ribozyme (parent)
chain: AUAAAAGCGCCAGAACUACAGAAAUGUAGUUGACGAGGAGGAGGUUUAUCGAAUUUUCGGCGGAUGCCUCCAAA

Key:
Settings in all cases: with glucosamine-6-phosphate
glucosamine-6-phosphate [1] = variants of: B1; assay: self-cleavage kobs at 160 uM GlcN6P; higher = faster cleavage; RNA array
Summary of the method: (§1)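 In situ transcription by E. coli RNA polymerase produced barcoded ribozyme variants on sequenced MiSeq chips, and a hybridised Cy3 probe tracked them at 37 °C. Glucosamine-6-phosphate was flowed in at 40 μM to 10 mM in HEPES/KCl/Mg(OAc)2 buffer. kcat and KM were taken from weighted Michaelis–Menten fits of kobs values from exponential decay fits.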

glucosamine-6-phosphate [2] = variants of: B1; assay: self-cleavage kobs at 640 uM GlcN6P; higher = faster cleavage; RNA array
Summary of the method: as §1

glucosamine-6-phosphate [3] = variants of: B1; assay: self-cleavage kobs at 2500 uM GlcN6P; higher = faster cleavage; RNA array
Summary of the method: as §1

glucosamine-6-phosphate [4] = variants of: B1; assay: self-cleavage kobs at 10000 uM GlcN6P; higher = faster cleavage; RNA array
Summary of the method: as §1

Row | Variant | self-cleavage kobs at 160 uM GlcN6P (glucosamine-6-phosphate [1]) | self-cleavage kobs at 640 uM GlcN6P (glucosamine-6-phosphate [2]) | self-cleavage kobs at 2500 uM GlcN6P (glucosamine-6-phosphate [3]) | self-cleavage kobs at 10000 uM GlcN6P (glucosamine-6-phosphate [4])
1 | A15C U30A | 0.000667 ± 0.00019 s⁻¹ | 0.00307 ± 0.00075 s⁻¹ | 0.0188 ± 0.0047 s⁻¹ | 0.0299 ± 0.015 s⁻¹
2 | C11A C34U G60U C71A | < 1e-05 s⁻¹ | – | < 1e-05 s⁻¹ | –
3 | C34U G41C G66U | < 1e-05 s⁻¹ | < 1e-05 s⁻¹ | < 1e-05 s⁻¹ | –
4 | G9C A64C | < 1e-05 s⁻¹ | < 1e-05 s⁻¹ | – | < 1e-05 s⁻¹
5 | A12U U56G G66C | 0.000132 ± 3.1e-05 s⁻¹ | 0.000374 ± 9e-05 s⁻¹ | 0.000708 ± 0.00017 s⁻¹ | –
6 | G44C G51U C68G | < 1e-05 s⁻¹ | – | – | –
7 | C8G A14G A15U G41C U47G U56A | < 1e-05 s⁻¹ | < 1e-05 s⁻¹ | < 1e-05 s⁻¹ | –
8 | C8A G13A G43U G51U | < 1e-05 s⁻¹ | – | < 1e-05 s⁻¹ | –
9 | G38A U54G C68A | 5.08e-05 ± 2e-05 s⁻¹ | – | – | –
10 | C8G G38A | < 1e-05 s⁻¹ | < 1e-05 s⁻¹ | < 1e-05 s⁻¹ | < 1e-05 s⁻¹
11 | U30C G62A C68G | < 1e-05 s⁻¹ | < 1e-05 s⁻¹ | < 1e-05 s⁻¹ | < 1e-05 s⁻¹
12 | G43A G44A U47A | < 1e-05 s⁻¹ | – | – | –
13 | G7C A24U U46A C68U | < 1e-05 s⁻¹ | < 1e-05 s⁻¹ | – | < 1e-05 s⁻¹
14 | G51A A52U | < 1e-05 s⁻¹ | – | – | –
15 | U31C U45A C67A | 0.000102 ± 3e-05 s⁻¹ | 0.000203 ± 4.8e-05 s⁻¹ | 0.000723 ± 0.00023 s⁻¹ | –
16 | G43C U55G | < 1e-05 s⁻¹ | – | – | –
17 | C34G C50G | 5.61e-05 ± 2.4e-05 s⁻¹ | 0.00014 ± 5.7e-05 s⁻¹ | 9.6e-05 ± 3.6e-05 s⁻¹ | –
18 | G9C C10U G41A G43U | < 1e-05 s⁻¹ | < 1e-05 s⁻¹ | – | –
19 | A36U U57C | < 1e-05 s⁻¹ | – | – | < 1e-05 s⁻¹
20 | A14U G37A A52U G60U | – | < 1e-05 s⁻¹ | – | –
21 | C8G G32U G38U G44A | – | < 1e-05 s⁻¹ | – | –

Row | Variant | self-cleavage kobs at 160 uM GlcN6P (glucosamine-6-phosphate [1]) | self-cleavage kobs at 640 uM GlcN6P (glucosamine-6-phosphate [2]) | self-cleavage kobs at 2500 uM GlcN6P (glucosamine-6-phosphate [3]) | self-cleavage kobs at 10000 uM GlcN6P (glucosamine-6-phosphate [4])
22 | A6G G51C A53U C67U | – | < 1e-05 s⁻¹ | – | –
23 | A14C A33C G44C G59U | – | < 1e-05 s⁻¹ | < 1e-05 s⁻¹ | –
24 | A14G C58G C71A | – | 0.000191 ± 5.2e-05 s⁻¹ | 9.06e-05 ± 1.5e-05 s⁻¹ | –
25 | G7U G35U C58U C70A C71U | – | < 1e-05 s⁻¹ | – | –
26 | U30A A36U C70G | – | 0.000179 ± 6.1e-05 s⁻¹ | 0.000108 ± 4.4e-05 s⁻¹ | 3.78e-05 ± 1.7e-05 s⁻¹
27 | G29C U55G C71A | – | 0.000503 ± 0.00015 s⁻¹ | 5.43e-05 ± 1.3e-05 s⁻¹ | –
28 | G38C U55A A64C | – | < 1e-05 s⁻¹ | – | –
29 | A15C G29U U55A | – | 0.000758 ± 0.0002 s⁻¹ | – | –
30 | A12C A20C | – | 0.00491 ± 0.0012 s⁻¹ | 0.0118 ± 0.0035 s⁻¹ | –
31 | C8G G35A U55C G60U C67A | – | < 1e-05 s⁻¹ | < 1e-05 s⁻¹ | –
32 | G43C G51A C67U | – | < 1e-05 s⁻¹ | – | –
33 | C8A C10A A42G G60U | – | < 1e-05 s⁻¹ | < 1e-05 s⁻¹ | –
34 | G13U G62C C70U | – | < 1e-05 s⁻¹ | – | –
35 | U56C U57C | – | 7.5e-05 ± 2.2e-05 s⁻¹ | 8.12e-05 ± 1.7e-05 s⁻¹ | –
36 | A14C C34G A64G | – | < 1e-05 s⁻¹ | < 1e-05 s⁻¹ | –
37 | A36G G66U | – | < 1e-05 s⁻¹ | < 1e-05 s⁻¹ | < 1e-05 s⁻¹
38 | G7U G13U A42G | – | < 1e-05 s⁻¹ | – | –
39 | A14U U46C C70U | – | 0.000206 ± 5e-05 s⁻¹ | – | –
40 | G41A G51A C68G | – | < 1e-05 s⁻¹ | – | –
41 | C8U G13A G66U | – | < 1e-05 s⁻¹ | < 1e-05 s⁻¹ | –
42 | C8A G35A G59A C70U | – | < 1e-05 s⁻¹ | < 1e-05 s⁻¹ | –

Row | Variant | self-cleavage kobs at 160 uM GlcN6P (glucosamine-6-phosphate [1]) | self-cleavage kobs at 640 uM GlcN6P (glucosamine-6-phosphate [2]) | self-cleavage kobs at 2500 uM GlcN6P (glucosamine-6-phosphate [3]) | self-cleavage kobs at 10000 uM GlcN6P (glucosamine-6-phosphate [4])
43 | C8A C11G G59C C61U | – | < 1e-05 s⁻¹ | < 1e-05 s⁻¹ | –
44 | G32U C34A G44A C68A | – | < 1e-05 s⁻¹ | < 1e-05 s⁻¹ | –
45 | A33C U47G A48C | – | < 1e-05 s⁻¹ | < 1e-05 s⁻¹ | < 1e-05 s⁻¹
46 | G29C G59U C71U | – | < 1e-05 s⁻¹ | – | –
47 | U45C A48C G63U | – | < 1e-05 s⁻¹ | < 1e-05 s⁻¹ | –
48 | U57G C67A U69G | – | 4.87e-05 ± 2.3e-05 s⁻¹ | – | –
49 | C16A G60U U69G | – | < 1e-05 s⁻¹ | – | –
50 | G13A A48U U54C | – | < 1e-05 s⁻¹ | – | –
51 | G32A C34U G60A | – | < 1e-05 s⁻¹ | < 1e-05 s⁻¹ | –
52 | C16U G38C | – | < 1e-05 s⁻¹ | – | –
53 | A12C U30A U56A | – | 0.000365 ± 0.00012 s⁻¹ | 0.00105 ± 0.00026 s⁻¹ | 0.00357 ± 0.00086 s⁻¹
54 | G7A U56G U69A | – | 0.00091 ± 0.00042 s⁻¹ | – | –
55 | U57A G60A C67G | – | 6.42e-05 ± 2.2e-05 s⁻¹ | 0.000109 ± 3.2e-05 s⁻¹ | –
56 | G29U G66C | – | 4.59e-05 ± 1.9e-05 s⁻¹ | 9.16e-05 ± 2.9e-05 s⁻¹ | –
57 | C10G A14U | – | < 1e-05 s⁻¹ | – | < 1e-05 s⁻¹
58 | G13A A39U U55C | – | 4.33e-05 ± 1.4e-05 s⁻¹ | 0.000128 ± 2.9e-05 s⁻¹ | –
59 | C8G C50G A52U | – | < 1e-05 s⁻¹ | – | –
60 | C16U U46C U55A C70U | – | 0.00101 ± 0.00034 s⁻¹ | 0.00219 ± 0.0006 s⁻¹ | 0.00226 ± 0.00047 s⁻¹
61 | C11U A15C A33G G44U U49C A64C C70U | – | < 1e-05 s⁻¹ | < 1e-05 s⁻¹ | –
62 | G35C U49A G51U A53U | – | < 1e-05 s⁻¹ | < 1e-05 s⁻¹ | –
63 | U31A U47C U54G | – | 0.000284 ± 6e-05 s⁻¹ | 0.00068 ± 0.00013 s⁻¹ | –
